Results as given in patent US20120231006A1 (Amgen, published 2012).

Columns and labels:
[1] = biological target: T1, hOrai1-mOrai1 ECL2 (…) protein (human/mouse chimera, UniProt Q96D31 1-301); experiment: FACS, 293EBNA, RFI-POC grade; design: concentration or dose not given beside the values
T1 construct: also called Ch
T1 sequence (Q96D31 other isoform, or with tags, fused parts or gaps): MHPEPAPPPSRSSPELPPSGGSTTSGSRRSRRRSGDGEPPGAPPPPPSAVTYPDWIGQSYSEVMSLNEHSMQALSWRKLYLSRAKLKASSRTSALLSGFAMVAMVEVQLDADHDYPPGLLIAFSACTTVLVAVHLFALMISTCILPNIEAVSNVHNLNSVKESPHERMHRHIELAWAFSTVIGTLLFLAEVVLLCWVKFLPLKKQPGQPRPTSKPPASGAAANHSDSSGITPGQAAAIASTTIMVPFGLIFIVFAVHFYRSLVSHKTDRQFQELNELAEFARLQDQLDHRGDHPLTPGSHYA

[2] = biological target: T2, hOrai1-mOrai1 ECL2 (…) protein (human/mouse chimera, UniProt Q96D31 1-301); experiment: FACS, 293EBNA, RFI-POC grade; design: concentration or dose not given beside the values; remark: listed apart in the source
T2 construct: also called Ch
T2 sequence (Q96D31 other isoform, or with tags, fused parts or gaps): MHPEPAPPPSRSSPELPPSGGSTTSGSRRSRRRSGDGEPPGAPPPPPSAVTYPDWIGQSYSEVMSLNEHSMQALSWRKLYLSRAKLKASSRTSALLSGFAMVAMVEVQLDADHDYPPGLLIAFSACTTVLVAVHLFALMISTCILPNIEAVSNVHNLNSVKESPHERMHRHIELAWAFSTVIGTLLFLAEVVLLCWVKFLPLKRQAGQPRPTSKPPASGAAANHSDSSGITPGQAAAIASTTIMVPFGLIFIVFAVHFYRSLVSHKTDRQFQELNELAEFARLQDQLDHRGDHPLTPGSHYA

[3] = biological target: T3, hOrai1-mOrai1 ECL2 (…) protein (human/mouse chimera, UniProt Q96D31 1-301); experiment: FACS, 293EBNA, RFI-POC grade; design: concentration or dose not given beside the values; remark: listed apart in the source
T3 construct: also called Ch
T3 sequence (Q96D31 other isoform, or with tags, fused parts or gaps): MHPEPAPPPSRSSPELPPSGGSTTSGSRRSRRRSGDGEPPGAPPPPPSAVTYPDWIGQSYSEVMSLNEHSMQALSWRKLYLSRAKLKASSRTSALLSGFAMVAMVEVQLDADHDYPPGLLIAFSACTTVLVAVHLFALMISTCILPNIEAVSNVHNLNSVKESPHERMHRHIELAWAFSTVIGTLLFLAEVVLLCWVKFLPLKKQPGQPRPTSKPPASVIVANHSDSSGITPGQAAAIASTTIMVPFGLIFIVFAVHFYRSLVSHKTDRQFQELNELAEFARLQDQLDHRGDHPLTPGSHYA

[4] = biological target: T4, hOrai1-mOrai1 ECL2 (SKPPA) protein (human/mouse chimera, UniProt Q96D31 1-301); experiment: FACS, 293EBNA, RFI-POC grade; design: concentration or dose not given beside the values
T4 construct: also called Ch

[5] = biological target: T5, mOrai1-hOrai1 ECL2 chimeric protein (human/mouse chimera, UniProt Q8BWG9 1-304 (mouse entry)); experiment: FACS, 293EBNA, RFI-POC grade; design: concentration or dose not given beside the values
T5 construct: mouse Orai1 with human ECL2; also called Ch

[6] = biological target: T6, hOrai1-mOrai1 ECL2 (RPTSKPPA) protein (human/mouse chimera, UniProt Q96D31 1-301); experiment: FACS, 293EBNA, RFI-POC grade; design: concentration or dose not given beside the values
T6 construct: also called Ch

[7] = biological target: T7, hOrai1-mOrai1 ECL2 chimeric protein (human/mouse chimera, UniProt Q96D31 1-301); experiment: FACS, 293EBNA; design: concentration or dose not given beside the values
T7 construct: human Orai1 with mouse ECL2; also called Ch
Procedure: (§1) FACS binding analysis. Transfected 293EBNA cells transiently expressed hOrai1-mOrai1 ECL2 or mOrai1-hOrai1 ECL2 chimera. The transfected cells were harvested at 48 hours post-transfection. Cells transfected with pcDNA3.1 were used as negative controls. Cells were washed once with ice-cold 1×PBS, resuspended in ice-cold FACS buffer (1×D-PBS+2% goat serum), and 2×10⁵ cells in 100 μL were stained per antibody combination. All antibody incubation steps were performed on ice for 1 hour. […] Next, the unlabelled antibody was detected using goat F(ab′)₂ anti-mouse or anti-human IgG-phycoerythrin (IgG-PE), followed by a wash with 200 μL of ice-cold FACS buffer before flow cytometry analysis. Unstained cells and cells stained with detecting antibodies were used as negative controls. The values of relative level of fluorescence were calculated using FCS Express (De Novo Software) and mean values were calculated using log-transformed data (geometric mean). The results of the FACS analysis are shown in FIG. 15A-B, which supports the conclusion that the hOrai1 ECL2 domain is the region of hOrai1 where antibodies of the present invention bind.
(§2) Representative results of FACS analysis of binding to the mutant hOrai1-mOrai1 ECL2 chimera described above by exemplary anti-hOrai1 antibodies of the present invention are shown in FIG. 17A-D, Table 10A and Table 10B below. Table 10A (Campaign 1) and Table 10B (Campaign 2) show the gain in binding ability of exemplary monoclonal antibodies to hOrai 1-mOrai 1 ECL2 chimera mutants as determined by FACS.

[8] = biological target: T8, hOrai1-mOrai1 ECL2 (GAA) protein (human/mouse chimera, UniProt Q96D31 1-301); experiment: FACS, 293EBNA; design: concentration or dose not given beside the values
T8 construct: also called Ch
Procedure: as §1, §2

[9] = biological target: T9, hOrai1-mOrai1 ECL2 (VST) protein (human/mouse chimera, UniProt Q96D31 1-301); experiment: FACS, 293EBNA; design: concentration or dose not given beside the values
T9 construct: also called Ch
Procedure: as §1, §2

[10] = biological target: T10, hOrai1-mOrai1 ECL2 (PASGAA) protein (human/mouse chimera, UniProt Q96D31 1-301); experiment: FACS, 293EBNA; design: concentration or dose not given beside the values
T10 construct: also called Ch
Procedure: as §1, §2

[11] = biological target: T11, hOrai1-mOrai1 ECL2 (AANVST) protein (human/mouse chimera, UniProt Q96D31 1-301); experiment: FACS, 293EBNA; design: concentration or dose not given beside the values
T11 construct: also called Ch
Procedure: as §1, §2

[12] = biological target: T12, hOrai1-mOrai1 ECL2 (…) protein (human/mouse chimera, UniProt Q96D31 1-301); experiment: FACS, 293EBNA; design: concentration or dose not given beside the values
T12 construct: also called Ch
Procedure: as §1, §2
T12 sequence (Q96D31 other isoform, or with tags, fused parts or gaps): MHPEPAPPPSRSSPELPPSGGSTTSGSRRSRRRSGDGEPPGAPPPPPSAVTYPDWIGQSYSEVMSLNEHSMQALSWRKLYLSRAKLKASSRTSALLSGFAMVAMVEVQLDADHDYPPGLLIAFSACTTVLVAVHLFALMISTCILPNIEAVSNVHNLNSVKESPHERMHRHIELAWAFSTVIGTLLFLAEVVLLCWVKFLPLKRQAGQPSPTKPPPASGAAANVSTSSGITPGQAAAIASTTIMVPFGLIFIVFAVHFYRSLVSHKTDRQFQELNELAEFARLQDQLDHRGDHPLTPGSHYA

[13] = biological target: T13, human Orai1 (human, UniProt Q96D31 1-301); experiment: cell-based or functional assay
[14] = biological target: T13, human Orai1; experiment: cell-based or functional assay; remark: listed apart in the source
[15] = biological target: T13, human Orai1; experiment: KinExA, AM1-CHO/hOrai1/hSTIM1-YFP cells
Procedure: Each equilibrium sample set was read in triplicate on the KinExA machine. For low [Ab] equilibrium samples 4 mL was run of each sample in triplicate. For high [Ab] equilibrium samples 300 μL was run of each sample in triplicate. […] For each equilibrium sample the free [Ab] would be detected by first running the coated beads through the flow cell, then after quick wash with the running buffer (1×PBS pH7.4+1% BSA+0.05% Sodium Azide) the equilibrium samples were passed through the beads followed by a quick wash with the running buffer. Then the secondary detection Ab, Gt anti Hu (H+ L) Cy5, was run through the flow cell at 1 μg/mL and 1000 μL per run. The KinExA voltage output signal was then used in KinExA software to calculate the Kd values for each antibody. From the plots at two different initial total [Ab] concentrations the Kd was obtained from curve fitting using n-curve analysis in KinExA Pro software (Sapidyne Instruments Inc., Boise Id.).

T13 sequence (Q96D31 whole entry): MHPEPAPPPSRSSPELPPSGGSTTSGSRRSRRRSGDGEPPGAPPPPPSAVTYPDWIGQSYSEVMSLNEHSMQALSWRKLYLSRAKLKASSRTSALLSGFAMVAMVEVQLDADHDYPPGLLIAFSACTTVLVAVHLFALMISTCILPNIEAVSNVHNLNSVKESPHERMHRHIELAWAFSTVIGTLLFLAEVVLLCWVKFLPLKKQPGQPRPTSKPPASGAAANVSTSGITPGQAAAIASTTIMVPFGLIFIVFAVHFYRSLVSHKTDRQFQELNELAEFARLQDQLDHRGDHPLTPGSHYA
T11 sequence (Q96D31 other isoform, or with tags, fused parts or gaps): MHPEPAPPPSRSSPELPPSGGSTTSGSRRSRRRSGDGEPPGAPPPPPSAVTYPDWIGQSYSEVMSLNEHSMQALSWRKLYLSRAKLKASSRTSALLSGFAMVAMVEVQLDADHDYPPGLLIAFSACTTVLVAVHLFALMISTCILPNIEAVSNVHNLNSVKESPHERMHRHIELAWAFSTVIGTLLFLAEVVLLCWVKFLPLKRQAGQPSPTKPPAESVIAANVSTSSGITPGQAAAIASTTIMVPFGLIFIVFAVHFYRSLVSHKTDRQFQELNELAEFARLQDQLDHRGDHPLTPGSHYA
T5 sequence (Q8BWG9 other isoform, or with tags, fused parts or gaps mutant): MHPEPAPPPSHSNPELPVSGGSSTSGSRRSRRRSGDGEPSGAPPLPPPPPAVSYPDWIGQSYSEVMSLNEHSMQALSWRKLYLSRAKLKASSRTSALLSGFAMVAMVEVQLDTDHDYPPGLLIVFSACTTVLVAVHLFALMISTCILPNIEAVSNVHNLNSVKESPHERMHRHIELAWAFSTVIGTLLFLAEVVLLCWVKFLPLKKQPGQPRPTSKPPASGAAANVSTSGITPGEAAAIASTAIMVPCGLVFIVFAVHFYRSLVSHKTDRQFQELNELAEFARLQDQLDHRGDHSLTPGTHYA
T6 sequence (Q96D31 other isoform, or with tags, fused parts or gaps): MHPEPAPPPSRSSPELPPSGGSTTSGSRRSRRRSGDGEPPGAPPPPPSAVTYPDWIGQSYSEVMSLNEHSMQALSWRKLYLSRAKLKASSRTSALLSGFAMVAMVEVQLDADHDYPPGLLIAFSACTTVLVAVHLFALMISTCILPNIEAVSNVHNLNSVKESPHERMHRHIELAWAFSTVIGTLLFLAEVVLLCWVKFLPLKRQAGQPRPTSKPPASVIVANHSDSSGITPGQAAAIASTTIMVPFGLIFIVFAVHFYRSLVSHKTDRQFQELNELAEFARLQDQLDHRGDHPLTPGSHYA
T4 sequence (Q96D31 other isoform, or with tags, fused parts or gaps): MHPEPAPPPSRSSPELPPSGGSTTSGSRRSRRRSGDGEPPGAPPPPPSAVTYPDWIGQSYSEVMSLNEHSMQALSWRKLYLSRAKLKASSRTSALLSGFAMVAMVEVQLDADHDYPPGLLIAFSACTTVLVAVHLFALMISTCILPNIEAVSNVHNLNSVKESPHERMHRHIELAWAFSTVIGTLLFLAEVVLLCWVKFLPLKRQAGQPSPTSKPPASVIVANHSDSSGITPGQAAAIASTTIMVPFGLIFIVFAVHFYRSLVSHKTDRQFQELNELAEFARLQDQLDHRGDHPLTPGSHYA
T9 sequence (Q96D31 other isoform, or with tags, fused parts or gaps): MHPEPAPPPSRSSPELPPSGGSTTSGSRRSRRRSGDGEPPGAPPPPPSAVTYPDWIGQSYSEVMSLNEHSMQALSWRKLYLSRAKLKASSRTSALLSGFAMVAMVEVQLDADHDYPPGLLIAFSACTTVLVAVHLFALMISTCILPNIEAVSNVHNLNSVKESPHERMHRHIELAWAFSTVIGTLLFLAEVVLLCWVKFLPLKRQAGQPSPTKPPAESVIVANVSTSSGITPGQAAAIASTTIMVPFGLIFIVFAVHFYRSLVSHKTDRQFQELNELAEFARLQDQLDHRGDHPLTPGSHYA
T8 sequence (Q96D31 other isoform, or with tags, fused parts or gaps): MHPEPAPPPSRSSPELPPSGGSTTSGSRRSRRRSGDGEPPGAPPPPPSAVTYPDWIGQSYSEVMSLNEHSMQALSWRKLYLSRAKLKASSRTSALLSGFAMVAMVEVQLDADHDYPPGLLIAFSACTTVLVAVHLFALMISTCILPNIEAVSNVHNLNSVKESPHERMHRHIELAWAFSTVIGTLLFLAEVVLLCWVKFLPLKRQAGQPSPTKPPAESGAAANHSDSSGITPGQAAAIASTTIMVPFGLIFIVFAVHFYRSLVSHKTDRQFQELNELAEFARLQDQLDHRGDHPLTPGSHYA
T10 sequence (Q96D31 other isoform, or with tags, fused parts or gaps): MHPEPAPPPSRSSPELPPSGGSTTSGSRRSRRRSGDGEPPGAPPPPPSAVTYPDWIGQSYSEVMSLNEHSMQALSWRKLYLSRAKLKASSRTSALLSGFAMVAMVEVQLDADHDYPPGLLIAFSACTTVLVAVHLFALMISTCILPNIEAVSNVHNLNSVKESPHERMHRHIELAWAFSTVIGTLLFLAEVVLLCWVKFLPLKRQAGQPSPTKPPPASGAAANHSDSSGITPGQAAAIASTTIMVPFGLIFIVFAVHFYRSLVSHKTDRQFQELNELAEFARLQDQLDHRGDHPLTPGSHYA
T7 sequence (Q96D31 other isoform, or with tags, fused parts or gaps mutant): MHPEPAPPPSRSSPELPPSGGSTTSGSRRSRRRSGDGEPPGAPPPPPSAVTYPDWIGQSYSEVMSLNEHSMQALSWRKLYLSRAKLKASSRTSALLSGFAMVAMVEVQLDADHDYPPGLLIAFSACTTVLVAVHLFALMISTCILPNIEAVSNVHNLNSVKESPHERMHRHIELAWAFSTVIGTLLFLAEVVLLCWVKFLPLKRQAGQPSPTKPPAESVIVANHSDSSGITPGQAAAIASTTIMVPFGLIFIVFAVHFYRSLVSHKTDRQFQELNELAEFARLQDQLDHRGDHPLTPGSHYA

- percent of control (POC) of FACS Geo Mean [1]: 40 to 100%
- percent of control (POC) of FACS Geo Mean [2]: 40 to 100%
- percent of control (POC) of FACS Geo Mean [3]: 40 to 100%
- percent of control (POC) of FACS Geo Mean [4]: 5 to 40%
- percent of control (POC) of FACS Geo Mean [5]: 40 to 100%
- percent of control (POC) of FACS Geo Mean [6]: 40 to 100%
- percent of control (POC) of FACS Geo Mean [7]: < 1%
- percent of control (POC) of FACS Geo Mean [8]: < 1%
- percent of control (POC) of FACS Geo Mean [9]: < 1%
- percent of control (POC) of FACS Geo Mean [10]: < 1%
- percent of control (POC) of FACS Geo Mean [11]: < 1%
- percent of control (POC) of FACS Geo Mean [12]: < 1%
- IC50, NFAT-mediated luciferase assay (FIG. 6B) [13]: 4.2 nM
- IC50, NFAT-mediated luciferase assay (FIG. 6C) [13]: 3.5 nM
- IC50 IFN-g, whole blood Donor A, recombinant mAb [14]: 5.27 nM
- IC50 IFN-g, whole blood Donor B, recombinant mAb [14]: 3.93 nM
- IC50 IL-2, whole blood Donor A, recombinant mAb [14]: 2.06 nM
- IC50 IL-2, whole blood Donor B, recombinant mAb [14]: 0.9 nM
- Kd [15]: 0.1 nM
B1: mAb 2B7.1 (antibody, human IgG2, V domains shown)
VH: QVQLQQWGAGLLKPSETLSLTCAVYGGSFSGYYWSWIRQPPGKGLEWIGEIDHSGSTNYNPALKSRLTISVDTSKNQFSLKLSSVTAADTAVYYCARAGSGGYEDWFDPWGQGTLVTVSS
VL: QSVLTQPPSVSGAPGQRVTISCTGSSSNIGTGYNVHWYQQFPRTDPKLLIYVYNIRPSGVPDRFSGSRSGTSASLAITGLQTEDEADYYCQSYDSSLSGVVFGGGTKLTVLG
notes: fully human, Campaign 1
